Assay results: patent US20090324622A1 (CELLDEX THERAPEUTICS, published 2009)
Blank lines part the entries; values can stand above or below the binder they belong to.

Legend:
[1] = target: T1, human macrophage mannose receptor (human, UniProt P22897 19-1456); test: flow cytometry on cultured human DCs
T1 construct: whole, on cells; also called MR; MMR
T1 sequence (looked up): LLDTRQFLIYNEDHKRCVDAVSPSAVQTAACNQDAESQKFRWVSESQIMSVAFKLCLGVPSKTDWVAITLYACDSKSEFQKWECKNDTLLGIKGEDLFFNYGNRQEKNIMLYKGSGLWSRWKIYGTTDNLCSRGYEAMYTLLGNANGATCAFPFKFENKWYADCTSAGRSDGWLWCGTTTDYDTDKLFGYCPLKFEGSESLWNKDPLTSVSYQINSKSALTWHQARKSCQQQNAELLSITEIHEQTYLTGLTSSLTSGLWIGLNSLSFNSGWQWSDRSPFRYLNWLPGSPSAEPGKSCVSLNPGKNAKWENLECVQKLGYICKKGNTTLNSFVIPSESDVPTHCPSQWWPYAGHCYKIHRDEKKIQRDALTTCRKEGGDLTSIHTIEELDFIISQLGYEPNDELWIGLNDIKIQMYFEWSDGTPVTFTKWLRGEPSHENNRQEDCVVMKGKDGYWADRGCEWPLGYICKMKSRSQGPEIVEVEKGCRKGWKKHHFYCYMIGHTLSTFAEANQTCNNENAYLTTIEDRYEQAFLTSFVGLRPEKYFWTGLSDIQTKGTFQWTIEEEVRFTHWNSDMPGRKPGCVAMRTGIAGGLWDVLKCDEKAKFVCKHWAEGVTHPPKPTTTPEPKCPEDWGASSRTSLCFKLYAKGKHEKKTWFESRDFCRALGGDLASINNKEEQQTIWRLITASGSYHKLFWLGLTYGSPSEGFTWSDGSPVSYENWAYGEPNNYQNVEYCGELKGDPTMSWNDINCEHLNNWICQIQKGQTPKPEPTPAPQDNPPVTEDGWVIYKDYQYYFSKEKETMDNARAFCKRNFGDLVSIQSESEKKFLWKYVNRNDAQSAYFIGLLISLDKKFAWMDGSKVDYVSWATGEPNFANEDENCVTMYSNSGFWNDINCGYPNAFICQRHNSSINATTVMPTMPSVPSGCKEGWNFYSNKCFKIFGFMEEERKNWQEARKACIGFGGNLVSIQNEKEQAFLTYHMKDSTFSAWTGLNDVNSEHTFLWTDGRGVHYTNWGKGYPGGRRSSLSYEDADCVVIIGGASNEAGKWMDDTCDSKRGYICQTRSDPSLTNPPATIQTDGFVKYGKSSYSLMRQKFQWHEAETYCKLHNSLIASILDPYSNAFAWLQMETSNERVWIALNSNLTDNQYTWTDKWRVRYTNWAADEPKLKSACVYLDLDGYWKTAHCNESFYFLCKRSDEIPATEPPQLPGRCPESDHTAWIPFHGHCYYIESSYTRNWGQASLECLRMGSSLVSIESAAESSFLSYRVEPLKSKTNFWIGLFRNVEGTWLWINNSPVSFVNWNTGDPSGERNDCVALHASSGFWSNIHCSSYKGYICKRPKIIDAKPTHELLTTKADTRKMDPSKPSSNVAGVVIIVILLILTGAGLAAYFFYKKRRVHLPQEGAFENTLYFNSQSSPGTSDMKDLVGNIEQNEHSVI
Protocol: Monocyte-derived DCs were exposed either to B11 sfv-βhCG or βhCG-B11 in PBS-BSA buffer for 45 minutes at 37° C. and allowed to mature overnight in the presence of CD40L. Harvested DCs were then washed and stained with mouse anti-βhCG followed by goat anti-hu IgG (Fc)-PE conjugate. Stained cells were analyzed on a flow cytometer (BD-LSR). Approximately, 10,000 events were collected for each sample. Background autofluorescence and isotype matched antibody staining served as controls. Based on the mean fluorescence intensity (MFI) (data not shown), B11 sfv-βhCG binding to MR expressed on DC is similar to that of βhCG-B11.

[2] = target: T1, human macrophage mannose receptor; test: in situ staining of MR on human tissue cryosections (immunohistochemistry)
From the text: Using the anti-MR antibody as a probe, in situ staining of MR on human dermal DCs and macrophages in section of various human tissues was examined. Human tissue cryosections were stained with anti-MR human antibody B11. DCs present in the dermal layer of the skin were clearly labeled (data not shown) with the B11 antibody. It is noted that there was binding to DCs in the dermal layer of skin. […] These studies have been repeated with the βhCG-B11 with identical results.

binding result [1]: binds
B1: B11sfv-βhCG construct (single chain B11 antibody, VL and VH, with βhCG fused to the carboxy terminus) (scFv)
scFv: DIQMTQSPSSLSASVGDRVTITCRASQGISRWLAWYQQKPEKAPKSLIYAASSLQSGVPSRFSGSGSGTDFTLTISGLQPEDFATYYCQQYNSYPRTFGQGTKVEIKGGGGSGGGGSGGGGSEVQLVQSGAEVKKPGESLRISCKGSGDSFTTYWIGWVRQMPGKGLEWMGIIYPGDSDTIYSPSFQGQVTISADKSISTAYLQWSSLKASDTAMYYCTRGDRGVDYWGQGTLVTVSSGSTGGGGSSSKEPLRPRCRPINATLAVEKEGCPVCITVNTTICAGYCPTMTRVLQGVLPALPQVVCNYRDVRFESIRLPGCPRGVNPVVSYAVALSCQCALCRRSTTDCGGPKDHPLTCDDPRFQDSSSSKAPPPSLPSPSRLPGPSDTPILPQ
notes: also called B11 scfv-βhCG; pB11sfv-βhCG

binding result [1]: binds
B2: βhCG-B11 construct (whole human anti-mannose receptor antibody B11 with βhCG fused to the CH3 end of the heavy chain) (antibody)
heavy: not shown
light: DIQMTQSPSSLSASVGDRVTITCRASQGISRWLAWYQQKPEKAPKSLIYAASSLQSGVPSRFSGSGSGTDFTLTISGLQPEDFATYYCQQYNSYPRTFGQGTKVEIK
notes: Antibody-antigen fusion expressed in CHO cells; also called B11-βhCG vaccine conjugate; B11-βhCG conjugate

binding result [2]: binds
B3: human monoclonal antibody B11 (anti-mannose receptor) (antibody, V domains shown)
VH: EVQLVQSGAEVKKPGESLRISCKGSGDSFTTYWIGWVRQMPGKGLEWMGIIYPGDSDTIYSPSFQGQVTISADKSISTAYLQWSSLKASDTAMYYCTRGDRGVDYWGQGTLVTVSS
VL: B2 light
notes: Fully human whole antibody with a kappa light chain; also called B11 mAb; anti-MR B11 HuMAb
